The text below walks through data of US20230365705A1 (DYNAMICURE BIOTECHNOLOGY, published 2023).

Assay [1] has as its target T1, Human CD93 on cells (human CD93 expressing CHO cells; HUVEC, U937 and KG1a cells) (human, UniProt Q9NPY3 22-652).
T1 construct: whole, on cells; also called hCD93 expressing CHO cells; hCD93 CHO cells
T1 sequence (looked up): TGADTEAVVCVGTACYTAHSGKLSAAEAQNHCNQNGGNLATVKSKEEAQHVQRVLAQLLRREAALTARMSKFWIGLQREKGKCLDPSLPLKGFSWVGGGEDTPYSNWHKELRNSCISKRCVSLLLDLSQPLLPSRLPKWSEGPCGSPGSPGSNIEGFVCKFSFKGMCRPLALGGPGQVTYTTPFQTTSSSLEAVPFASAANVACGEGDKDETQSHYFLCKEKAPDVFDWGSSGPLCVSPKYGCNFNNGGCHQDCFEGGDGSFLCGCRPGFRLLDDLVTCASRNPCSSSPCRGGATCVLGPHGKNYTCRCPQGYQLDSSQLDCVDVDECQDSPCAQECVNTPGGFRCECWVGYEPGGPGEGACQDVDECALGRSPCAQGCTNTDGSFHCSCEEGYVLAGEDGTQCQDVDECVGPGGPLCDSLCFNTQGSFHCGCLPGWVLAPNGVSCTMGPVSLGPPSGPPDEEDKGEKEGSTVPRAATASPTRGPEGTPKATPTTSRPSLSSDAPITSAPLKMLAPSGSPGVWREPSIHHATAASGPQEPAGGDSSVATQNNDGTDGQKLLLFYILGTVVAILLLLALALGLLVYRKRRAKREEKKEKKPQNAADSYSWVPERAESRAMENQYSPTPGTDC
The assay can be described thus: flow cytometry blocking assay, CHO-hCD93 cells; blocked ligand hMMRN2 495-674 at 0.1 ug/ml; blocking activity is 0 up to about 10 ug/ml and appears only at the two highest points. On the procedure: (§1) Then the cells were incubated with hMMRN2₄₉₅₋₆₇₄ at 0.1 μg/ml. […] Then the cells were washed with FACS buffer and incubated with APC-conjugated anti-His tag antibody at 1 μg/ml for 30 minutes at 4° C. After washing with FACS buffer twice, the samples were analyzed and data acquired in NovoCyte Flow. Recombinant his tagged […] was produced internally in Expi_HEK following routine procedure.

The target in assay [2] is T2, Human CD93 recombinant protein (Sino Biological Inc, Catalog #12589-H08H) (human, UniProt Q9NPY3 22-580).
T2 construct: Biotinylated (EZ-LINK NHS-PEG4 biotin) in the BLI assays; also called hCD93; His-tagged human CD93
T2 sequence (looked up): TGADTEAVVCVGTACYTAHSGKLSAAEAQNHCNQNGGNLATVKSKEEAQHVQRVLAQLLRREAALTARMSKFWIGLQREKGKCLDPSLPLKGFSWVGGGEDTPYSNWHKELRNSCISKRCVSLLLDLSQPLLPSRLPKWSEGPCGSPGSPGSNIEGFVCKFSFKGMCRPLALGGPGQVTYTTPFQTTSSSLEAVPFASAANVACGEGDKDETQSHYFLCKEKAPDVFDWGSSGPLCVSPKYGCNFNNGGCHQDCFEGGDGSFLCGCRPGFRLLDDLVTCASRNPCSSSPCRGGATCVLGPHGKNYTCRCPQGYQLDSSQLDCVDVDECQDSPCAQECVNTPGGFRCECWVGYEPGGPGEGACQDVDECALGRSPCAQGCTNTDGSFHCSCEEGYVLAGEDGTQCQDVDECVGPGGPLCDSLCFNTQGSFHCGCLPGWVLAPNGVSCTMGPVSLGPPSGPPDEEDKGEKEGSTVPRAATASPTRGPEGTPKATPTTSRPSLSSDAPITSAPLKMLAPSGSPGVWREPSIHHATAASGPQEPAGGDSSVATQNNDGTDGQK
As to the kind of experiment: summary table, column ELISA (hCD93); 2 weeks at 40 C. On the procedure: (§2) His-tagged human CD93 was coated onto a 96 well plate at 1 μg/mL in 1×PBS overnight at 4° C. The plate was washed with ELISA wash buffer (Boston BioProduct, Inc.) and the wells were blocked with ELISA blocking buffer for 1 hour at 37° C. […] The plate was washed with ELISA wash Buffer. HRP-conjugated anti-human Fc antibody was incubated for 1 hour at 37° C. The plate was washed with ELISA wash Buffer. HRP substrate was added for indirect detection of the antibodies binding to CD93.
as §2
A general note: An ELISA detects its analyte on a solid surface through an enzyme-linked reagent.

Assay [3] deals with T1, Human CD93 on cells (human CD93 …). As to the kind of experiment: flow cytometry titration, HUVEC cells. The protocol: (§3) HUVEC cells were detached by incubation with TrypLE reagents (Thermo Fisher), which preserves the integrity of CD93 on the cell surface. Then the cells were incubated with serial diluted anti-CD93 antibodies for 30 minutes at 4° C. After washing by FACS buffer, the cells were incubated with Alexa Fluor 647 conjugated anti-human IgG (Jackson ImmunoResearch) for 30 minutes in 4° C. After washing by FACS buffer twice, the samples were acquired in NovoCyte Flow Cytometer and analyzed by NovoExpress software.
For orientation: Flow cytometry measures light scatter and fluorescence of single cells or particles in a stream.

The target of assay [4] is T2, Human CD93 recombinant protein (Sino …). The assay can be described thus: BLI (Octet QKe), biotinylated human CD93 on streptavidin biosensors; antibody stored 2 weeks at 40 C. On the procedure:
(§4) The binding affinity of anti-CD93 antibodies was determined with bio-layer interferometry using Octet QKe (Fortebio). […] Human CD93 recombinant protein (Sino Biological Inc, Catalog #12589-H08H) was biotinylated using EZ-LINK NHS-PEG4 biotin (Thermo Fisher Scientific). Streptavidin biosensors (Fortebio) were used to load biotinylated CD93 protein (300 seconds in 5 μg/ml). Baseline was stabilized for 60 seconds in 1×kinetics buffer (Fortebio) before anti-CD93 antibodies, at a serial dilution, were allowed to associate for 300 seconds with captured protein. Then the sensors were dissociated in 1× kinetics buffer for 600 seconds. […] (FIG. 41).
(Biolayer interferometry detects binding as a change in optical thickness at a sensor tip.)

Assay [5] has as its target T1, Human CD93 on cells (human CD93 …). As to the kind of experiment: flow cytometry blocking assay, CHO-hCD93 cells; blocked ligand hMMRN2 495-674 at 0.1 ug/ml. On the procedure:
as §1

For assay [6] the target is unchanged. As to the kind of experiment: summary table, column FACS (HUVEC cells); 2 weeks at 40 C. The protocol: as §3
Assay [7] deals with T2, Human CD93 recombinant protein (Sino …). The assay can be described thus: BLI (Octet QKe), biotinylated human CD93 on streptavidin biosensors. The protocol: as §4

B1: h16E4 (humanized 16E4, VH4+VL6) (antibody, V domains shown)
VH: QVQLVQSGAEVKKPGASVKVSCKASGYTFTSYWMHWVRQAPGQGLEWMGEIDPSASYTYYNQKFKGRVTMTRDKSSSTVYMELSSLTSEDSAVYYCARSVYYGNKYFDVWGAGTTVTVSS
VL: DIQMTQSPSTLSASVGDRVTITCKASQSVDYAGDSYMNWYQQKPGKAPKLLIYAASNLESGVPSRFSGSGSGTEFTLTISSLQPDDFATYYCQQTNEDPRTFGGGTKLEIK
notes: Detected with anti-human IgG, so a human Fc
Consider B1, for which the concentration for half-maximal inhibition (IC50) – broadly, the concentration at which inhibition is half-maximal – in assay [1] amounted to 225 nM. In addition, the EC50 (in general, the concentration at which the effect is half-maximal) in assay [2] is 0.049 nM.

B2: h7F3 (humanized 7F3, VH3+VL3) (antibody, human IgG1, V domains shown)
VH: QVQLVQSGAEVKKPGASVKVSCKASGYTFTDYEMHWVRQAPGQGLEWMGGIDPETGDTAYNQNFKGRVTMTTDTSTSTAYMELRSLTSDDTAVYYCTNYGNLYYYAMDYWGQGTSVTVSS
VL: EIVLTQSPSSLSASVGDRVTITCRASSSVSSSYLHWYQQKPGKAPKLLIYSTSNLAFGVPSRFSGSGSGTSYTFTISSLQPEDIATYYCQQYSGYPLTFGSGTKLEIK
notes: also called humanized 7F3-hIgG1
Regarding B2, the EC50 in assay [3] was found to be 1.34 nM; in assay [2], 0.0413 nM; in assay [6], 1.17 nM. The values for the equilibrium dissociation constant (Kd) in assay [4] and in assay [7] were 0.495 nM and 0.472 nM, respectively. In addition, the koff (as a rule, the first-order rate constant of dissociation) in assay [4] was found to be 0.000356 s⁻¹; in assay [7], 0.000321 s⁻¹. In addition, the results for the kon in assay [4] and in assay [7] were 720000 M⁻¹ s⁻¹ and 681000 M⁻¹ s⁻¹, respectively. It took 0.133 nM to reach half-maximal inhibition in assay [5] (IC50).
